{
  "source": "patent US20230399394A1",
  "about": "(SUNSHINE GUOJIAN PHARMACEUTICAL SHANGHAI, published 2023)",
  "binders": {"B1": {"name": "874F7 (antibody, V domains shown)", "VH": "QVQLKESGPGLVAPSHSLSITCNVSGFSLSKYGVHWIRQIPGRGLDWLGVLRAGGSTGYNSALMSRLSISKDSSKSQVFLKMNDLRTDDTAVYFCVRDHYYYSSYGGFVYWGQGTLVTVSA", "VL": "DIQMTQSPASQSASLGESVTITCLASQTIGAWLAWYRQQPGKSPQLLIYAATRLADGVPSRFSGSGSGTEFSFKINNLQAEDFVSYYCQQLDSSPYTFGGGTRLEM", "notes": "Murine hybridoma antibody purified on Protein G; also called murine antibody 874F7"}},
  "experiment_in_all_cases": "ELISA, biotinylated peptide on streptavidin plate, antibody 10 µg/mL, well 2",
  "key": {"[1]": {"molecular_target": "T1, Pep13 (human, N-terminal biotin)", "T1 construct": "Synthetic 20-mer of human IL-33", "T1 peptide": "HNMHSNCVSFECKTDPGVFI", "method": "(§1) To determine the binding activity of antibody to each polypeptide fragment, the ELISA plate was pre-coated by biotin-avidin (SA) which was diluted in coating solution (50 mM carbonate coating buffer, pH 9.6) to 2 μg/ml at 4° C. overnight. The plate was washed with PBST for 3 times, and then blocked with 2% BSA prepared in PBS at room temperature for 2 h with 200 μL/well. The plate was washed once with PBST, and 864F3 and 874F7 with final concentrations of 10 μg/mL were added at 100 μL/well, respectively, and the plate was incubated at room temperature for 1 h. The plate was washed with PBST for 3 times, and the goat anti-mouse IgG labeled by HRP was added and placed at 37° C. for 30 min. After washing the plate with PBST for 3 times, the plate was patted on the absorbent paper to remove residual droplets as far as possible. 100 μl TMB developing solution was added to each well, and the plate was placed at room temperature (20±5° C.) for 5 minutes away from light; 50 μl 2M H₂SO₄ terminating solution was added to each well to terminate the substrate reaction. OD values were read at 450 nm on the microplate reader to analyze the binding ability of the antibody to each polypeptide fragment. The experimental results are shown in […]"}, "[2]": {"molecular_target": "T2, Pep16 (human, N-terminal biotin)", "T2 construct": "Synthetic 20-mer of human IL-33", "T2 peptide": "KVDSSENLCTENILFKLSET", "method": "as §1"}, "[3]": {"molecular_target": "T3, Pep11 (human, N-terminal biotin)", "T3 construct": "Synthetic 20-mer of human IL-33", "T3 peptide": "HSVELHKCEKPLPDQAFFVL", "method": "as §1"}, "[4]": {"molecular_target": "T4, Pep4 (human, N-terminal biotin)", "T4 construct": "Synthetic 20-mer of human IL-33", "T4 peptide": "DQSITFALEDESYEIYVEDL", "method": "as §1"}, "[5]": {"molecular_target": "T5, Pep5 (human, N-terminal biotin)", "T5 construct": "Synthetic 20-mer of human IL-33", "T5 peptide": "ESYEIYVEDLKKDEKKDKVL", "method": "as §1"}, "[6]": {"molecular_target": "T6, Pep1 (human, N-terminal biotin)", "T6 construct": "Synthetic 20-mer of human IL-33", "T6 peptide": "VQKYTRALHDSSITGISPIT", "method": "as §1"}, "[7]": {"molecular_target": "T7, Pep9 (human, N-terminal biotin)", "T7 construct": "Synthetic 20-mer of human IL-33", "T7 peptide": "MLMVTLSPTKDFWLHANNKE", "method": "as §1"}, "[8]": {"molecular_target": "T8, Pep14 (human, N-terminal biotin)", "T8 construct": "Synthetic 20-mer of human IL-33", "T8 peptide": "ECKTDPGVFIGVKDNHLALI", "method": "as §1"}, "[9]": {"molecular_target": "T9, Pep12 (human, N-terminal biotin)", "T9 construct": "Synthetic 20-mer of human IL-33", "T9 peptide": "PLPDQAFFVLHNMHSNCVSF", "method": "as §1"}, "[10]": {"molecular_target": "T10, Pep2 (human, N-terminal biotin)", "T10 construct": "Synthetic 20-mer of human IL-33", "T10 peptide": "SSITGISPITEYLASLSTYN", "method": "as §1"}, "[11]": {"molecular_target": "T11, Pep8 (human, N-terminal biotin)", "T11 construct": "Synthetic 20-mer of human IL-33", "T11 peptide": "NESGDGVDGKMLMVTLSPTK", "method": "as §1"}, "[12]": {"molecular_target": "T12, Pep15 (human, N-terminal biotin)", "T12 construct": "Synthetic 20-mer of human IL-33", "T12 peptide": "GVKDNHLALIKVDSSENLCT", "method": "as §1"}, "[13]": {"molecular_target": "T13, Pep10 (human, N-terminal biotin)", "T13 construct": "Synthetic 20-mer of human IL-33", "T13 peptide": "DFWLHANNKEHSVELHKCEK", "method": "as §1"}, "[14]": {"molecular_target": "T14, Pep3 (human, N-terminal biotin)", "T14 construct": "Synthetic 20-mer of human IL-33", "T14 peptide": "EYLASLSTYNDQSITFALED", "method": "as §1"}, "[15]": {"molecular_target": "T15, Pep6 (human, N-terminal biotin)", "T15 construct": "Synthetic 20-mer of human IL-33", "T15 peptide": "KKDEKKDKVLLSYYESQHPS", "method": "as §1"}, "[16]": {"molecular_target": "T16, Pep7 (human, N-terminal biotin)", "T16 construct": "Synthetic 20-mer of human IL-33", "T16 peptide": "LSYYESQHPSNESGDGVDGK", "method": "as §1"}},
  "data": [
    {"binder": "B1", "values": [
      {"measurement": "OD450", "setting": "[1]", "value": 0.053, "unit": "OD450"},
      {"measurement": "OD450", "setting": "[2]", "value": 0.049, "unit": "OD450"},
      {"measurement": "OD450", "setting": "[3]", "value": 0.053, "unit": "OD450"},
      {"measurement": "OD450", "setting": "[4]", "value": 0.048, "unit": "OD450"},
      {"measurement": "OD450", "setting": "[5]", "value": 0.049, "unit": "OD450"},
      {"measurement": "OD450", "setting": "[6]", "value": 0.061, "unit": "OD450"},
      {"measurement": "OD450", "setting": "[7]", "value": 0.061, "unit": "OD450"},
      {"measurement": "OD450", "setting": "[8]", "value": 0.053, "unit": "OD450"},
      {"measurement": "OD450", "setting": "[9]", "value": 0.053, "unit": "OD450"},
      {"measurement": "OD450", "setting": "[10]", "value": 0.05, "unit": "OD450"},
      {"measurement": "OD450", "setting": "[11]", "value": 0.047, "unit": "OD450"},
      {"measurement": "OD450", "setting": "[12]", "value": 0.052, "unit": "OD450"},
      {"measurement": "OD450", "setting": "[13]", "value": 0.052, "unit": "OD450"},
      {"measurement": "OD450", "setting": "[14]", "value": 0.048, "unit": "OD450"},
      {"measurement": "OD450", "setting": "[15]", "value": 1.03, "unit": "OD450"},
      {"measurement": "OD450", "setting": "[16]", "value": 0.051, "unit": "OD450"}
    ]}
  ]
}
